Data on two molecules can be found in PMC11543927, “Subtleties in Clathrin heavy chain binding boxes provide selectivity among adaptor proteins of budding yeast” (Nature Communications, 2024).

Holding throughout (test): nanoDSF thermal shift; ScChc-NTD mutants 10 µM with Ent1 or Ent2 peptide, thermal ramp up to 80 °C; apparent KD from the Tm shift model
Common to all, as to conditions: both partners purified

For assay [1], the target named is T1, ScChc-NTD W-box mutant (F26A, Q155A) (Saccharomyces cerevisiae, UniProt P22137 1-369, F26A | Q155A).
T1 construct: Clathrin heavy chain N-terminal domain, Saccharomyces cerevisiae, residues 1-369, W-box mutant; also called W mutant
T1 sequence (looked up): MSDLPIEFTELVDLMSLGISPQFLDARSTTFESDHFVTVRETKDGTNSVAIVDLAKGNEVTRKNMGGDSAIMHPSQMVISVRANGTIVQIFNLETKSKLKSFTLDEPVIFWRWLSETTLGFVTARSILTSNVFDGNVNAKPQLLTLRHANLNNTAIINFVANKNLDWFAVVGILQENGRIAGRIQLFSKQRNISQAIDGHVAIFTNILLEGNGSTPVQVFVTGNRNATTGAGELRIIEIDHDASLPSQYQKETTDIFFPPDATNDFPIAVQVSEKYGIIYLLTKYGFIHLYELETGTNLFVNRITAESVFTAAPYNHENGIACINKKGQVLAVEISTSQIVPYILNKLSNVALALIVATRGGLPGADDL

Assay [2] deals with T2, ScChc-NTD Arrestin and W box mutant (Arr+W) (Saccharomyces cerevisiae, UniProt P22137 1-369, F26A | Q155A | Q195A | I197T | K251E).
T2 construct: Clathrin heavy chain N-terminal domain, Saccharomyces cerevisiae, residues 1-369, Arrestin and W box mutant
T2 sequence (looked up): T1 sequence (looked up) with Q195A, I197T, K251E

Assay [3] has as its target T3, ScChc-NTD Clathrin, Arrestin and W box mutant (Cla+Arr+W) (Saccharomyces cerevisiae, UniProt P22137 1-369, F26A | K63E | I87D | Q89A | K98E | Q155A | Q195A | I197T | K251E).
T3 construct: Clathrin heavy chain N-terminal domain, Saccharomyces cerevisiae, residues 1-369, Clathrin, Arrestin and W box mutant; also called triple mutant
T3 sequence (looked up): T1 sequence (looked up) with K63E, I87D, Q89A, K98E, Q195A, I197T, K251E

Changes are numbered by the printed parent chain.

B1: Ent2 CBM peptide (GVSLIDL) (peptide)
peptide: GVSLIDL
notes: also called Ent2 peptide; source: synthetic peptide, bought: NovoProLabs
Regarding B1, the binding result in assay [1] and in assay [2] was “binds” in each case. The Kd in assay [3] was about 1040 µM.

B2: Ent1 CBM peptide (GYTLIDL) (peptide)
peptide: GYTLIDL
notes: also called Ent1 peptide; source: synthetic peptide, bought: NovoProLabs
Consider B2, for which the binding result in assay [1] and in assay [2] was “binds” in each case. Further, in assay [3], the Kd was about 3450 µM.
